Earlier results in paper PMC5538147.

Target: UvrD (Escherichia coli) (UniProt P03018)

In the case of UvrD (from UniProt P03018), the Kd is listed as 470 nM.
